Measurements reported in paper PMC9820293.

Assays:
[1] = biological target: Bovine cardiac actin, filamentous (F-actin) (bovine) (UniProt Q3ZC07); assay: co-sedimentation; Tpm co-sedimented with F-actin at room temperature; apparent affinity; K50% is the Tpm concentration at which half of the actin becomes saturated; three measurements averaged; as described in refs 27, 28
[2] = biological target: Bovine cardiac actin, filamentous (F-actin) (bovine) (UniProt Q3ZC07); assay: temperature dependence of light scattering; thermally induced dissociation of Tpm complexes with F-actin stabilized by phalloidin; light scattering at 90°, 350 nm, heating 1 °C/min; Tdiss is the temperature at which a 50% decrease in light scattering occurs; no troponin
[3] = biological target: Bovine cardiac actin, filamentous (F-actin) (bovine) (UniProt Q3ZC07)
[4] = biological target: Bovine cardiac actin, filamentous (F-actin) (bovine) (UniProt Q3ZC07); remark: listed apart in the source
[5] = biological target: Bovine cardiac actin, filamentous (F-actin) (bovine) (UniProt Q3ZC07); remark: listed apart in the source

Row | Substance | K50% [1] | Tdiss [2] | C50, myosin concentration at which the sliding velocity is half-maximal, in vitro motility assay; filament: F-actin alone [3] | C50, myosin concentration at which the sliding velocity is half-maximal, in vitro motility assay; filament: F-actin with D219V Tpm [3] | C50, myosin concentration at which the sliding velocity is half-maximal, in vitro motility assay; filament: F-actin with WT Tpm [3] | Vmax, sliding velocity at saturated myosin concentration, in vitro motility assay; filament: F-actin alone [3] | Vmax, sliding velocity at saturated myosin concentration, in vitro motility assay; filament: F-actin with D219V Tpm [3] | Vmax, sliding velocity at saturated myosin concentration, in vitro motility assay; filament: F-actin with WT Tpm [3] | V0, sliding velocity at low Ca2+ concentration, in vitro motility assay; regulated thin filament of F-actin, D219V Tpm and troponin [4] | V0, sliding velocity at low Ca2+ concentration, in vitro motility assay; regulated thin filament of F-actin, WT Tpm and troponin [4] | Vmax, sliding velocity at saturated Ca2+ concentration, in vitro motility assay; regulated thin filament of F-actin, D219V Tpm and troponin [4] | Vmax, sliding velocity at saturated Ca2+ concentration, in vitro motility assay; regulated thin filament of F-actin, WT Tpm and troponin [4] | C50 of LV myosin for the sliding velocity of thin filaments at saturated Ca2+ concentration, in vitro motility assay; thin filament with D219V Tpm [5] | C50 of LV myosin for the sliding velocity of thin filaments at saturated Ca2+ concentration, in vitro motility assay; thin filament with WT Tpm [5] | C50 of LA myosin for the sliding velocity of thin filaments at saturated Ca2+ concentration, in vitro motility assay; thin filament with D219V Tpm [5] | C50 of LA myosin for the sliding velocity of thin filaments at saturated Ca2+ concentration, in vitro motility assay; thin filament with WT Tpm [5]
1 | Human Tpm1.1 D219V mutant (natural protein) | 2.64 µM | 45.3 °C | – | – | – | – | – | – | – | – | – | – | – | – | – | –
2 | Ventricular myosin from the left ventricle of the pig (from UniProt P79293 1-1935) (complex) | – | – | 20.1 µg/mL | 26 µg/mL | 54.9 µg/mL | 2.88 µm/s | 2.93 µm/s | 1.5 µm/s | 0.81 µm/s | 0.24 µm/s | 4.22 µm/s | 3.73 µm/s | 25.9 µg/mL | 30.1 µg/mL | – | –
3 | Human Tpm1.1 WT (cardiac tropomyosin 1.1) (natural protein) | 2.88 µM | 43.3 °C | – | – | – | – | – | – | – | – | – | – | – | – | – | –
4 | Atrial myosin from the left atrium of the pig (from UniProt F1RRT2 1-197; F1SSF9 1-175) (complex) | – | – | 18 µg/mL | 43 µg/mL | 55.4 µg/mL | 3.26 µm/s | 3.32 µm/s | 1.25 µm/s | 1.42 µm/s | 0.39 µm/s | 8.45 µm/s | 7.17 µm/s | – | – | 47.2 µg/mL | 45.3 µg/mL
